The term Kd denotes the free concentration of one partner at which half of the binding sites on the other are occupied at equilibrium, for simple one-to-one binding.

The chains are these.
B1: FcγRIIa H131 (receptor)
chain: QAAAPPKAVLKLEPPWINVLQEDSVTLTCQGARSPESDSIQWFHNGNLIPTHTQPSYRFKANNNDSGEYTCQTGQTSLSDPVHLTVLSEWLVLQTPHLEFQEGETIMLRCHSWKDKPLVKVTFFQNGKSQKFSHLDPTFSIPQANHSHSGDYHCTGNIGYTLFSSKPVTITVQVPSMGSSSPMGIIVAVVIATAVAAIVAAVVALIYCRKKRISANSTDPVKAAQFEPPGRQMIAIRKRQLEETNNDYETADGGYMTLNPRAPTDDDKNIYLTLPPNDHVNSNN
B2: FcγRIIa R131 (receptor)
chain: QAAAPPKAVLKLEPPWINVLQEDSVTLTCQGARSPESDSIQWFHNGNLIPTHTQPSYRFKANNNDSGEYTCQTGQTSLSDPVHLTVLSEWLVLQTPHLEFQEGETIMLRCHSWKDKPLVKVTFFQNGKSQKFSRLDPTFSIPQANHSHSGDYHCTGNIGYTLFSSKPVTITVQVPSMGSSSPMG
B3: FcγRIIb (receptor)
chain: TPAAPPKAVLKLEPQWINVLQEDSVTLTCRGTHSPESDSIQWFHNGNLIPTHTQPSYRFKANNNDSGEYTCQTGQTSLSDPVHLTVLSEWLVLQTPHLEFQEGETIVLRCHSWKDKPLVKVTFFQNGKSKKFSRSDPNFSIPQANHSHSGDYHCTGNIGYTLYSSKPVTITVQAPSSSPMGIIVAVVTGIAVAAIVAAVVALIYCRKKRISALPGYPECREMGETLPEKPANPTNPDEADKVGAENTITYSLLMHPDALEEPDDQNRI

The target of this assay is CAP256 pIgG. The experiment in a line: SPR. (In general: In SPR one partner is held on a chip, and binding of the other changes the refractive index at the surface.)
As to B1, the Kd stood at 5.8 µM. In other words, the single-digit micromolar range.
The molecule B2 returned a Kd of 4.6 µM.
In turn, B3 had a Kd of 5.3 µM.

Values taken from paper PMC6936867 (2019).
